According to patent US20240261333A1, “NOVEL TARGETS FOR ENHANCING ANTI-TUMOR IMMUNITY” (THE BROAD INSTITUTE, INC., priority 2021, published 2024):

What was measured:
CASC3 (human) = CASC3 (human) (UniProt O15234); assay: co-IP with mouse anti-FLAG from lysate of cells overexpressing N-FLAG B3GNT2, then mass spectrometry
RPN1 = RPN1 (UniProt P04843); assay: co-IP with mouse IgG control, mass spectrometry; lysate of C-FLAG B3GNT2 cells
RPLP2 = RPLP2 (UniProt P05387); assay: as above
ENO1 = ENO1 (UniProt P06733); assay: as above
RPL21 = RPL21 (UniProt P46778); assay: as above
CTSD = CTSD (UniProt P07339); assay: as above
RPL18A = RPL18A (UniProt Q02543); assay: co-IP, anti-FLAG, lysate of C-FLAG B3GNT2 cells, mass spectrometry
PPIB = PPIB (UniProt P23284); assay: as above
LAMB1 = LAMB1 (UniProt P07942); assay: as above
CNP = CNP (UniProt P09543); assay: as above
RNASE1 = RNASE1 (UniProt P07998); assay: as above
TNC = TNC (UniProt P24821); assay: as above
NCL = NCL (UniProt P19338); assay: as above
PGK1 = PGK1 (UniProt P00558); assay: as above
MAP1B = MAP1B (UniProt P46821); assay: as above
CEP170 = CEP170 (UniProt Q5SW79); assay: as above
ARPC2 = ARPC2 (UniProt O15144); assay: as above
SMN1 = SMN1 (UniProt Q16637); assay: as above
RBMX = RBMX (UniProt P38159); assay: as above
LRPPRC = LRPPRC (UniProt P42704); assay: as above
CSPG4 = CSPG4 (UniProt Q6UVK1); assay: as above
DPM1 = DPM1 (UniProt O60762); assay: as above
SLC25A1 = SLC25A1 (UniProt P53007); assay: as above
LOXL4 = LOXL4 (UniProt Q96JB6); assay: as above
RAB1B = RAB1B (UniProt Q9H0U4); assay: as above
CALM2 = CALM2 (UniProt P0DP24); assay: as above
TM9SF3 = TM9SF3 (UniProt Q9HD45); assay: as above
MYO1D = MYO1D (UniProt O94832); assay: as above
RPL29 = RPL29 (UniProt P47914); assay: as above
GNAS = GNAS (UniProt Q5JWF2); assay: as above
TRIM28 = TRIM28 (UniProt Q13263); assay: as above
HSPH1 = HSPH1 (UniProt Q92598); assay: as above
OS9 = OS9 (UniProt Q13438); assay: as above
SLC25A10 = SLC25A10 (UniProt Q9UBX3); assay: as above
ABCF1 = ABCF1 (UniProt Q8NE71); assay: as above
SLC25A3 = SLC25A3 (UniProt Q00325); assay: as above
SERPINE2 = SERPINE2 (UniProt P07093); assay: as above
HSPA5 = HSPA5 (UniProt P11021); assay: as above
LRP2 = LRP2 (UniProt P98164); assay: as above

Chain of LAMB1 (P07942 22-1786 limits assumed): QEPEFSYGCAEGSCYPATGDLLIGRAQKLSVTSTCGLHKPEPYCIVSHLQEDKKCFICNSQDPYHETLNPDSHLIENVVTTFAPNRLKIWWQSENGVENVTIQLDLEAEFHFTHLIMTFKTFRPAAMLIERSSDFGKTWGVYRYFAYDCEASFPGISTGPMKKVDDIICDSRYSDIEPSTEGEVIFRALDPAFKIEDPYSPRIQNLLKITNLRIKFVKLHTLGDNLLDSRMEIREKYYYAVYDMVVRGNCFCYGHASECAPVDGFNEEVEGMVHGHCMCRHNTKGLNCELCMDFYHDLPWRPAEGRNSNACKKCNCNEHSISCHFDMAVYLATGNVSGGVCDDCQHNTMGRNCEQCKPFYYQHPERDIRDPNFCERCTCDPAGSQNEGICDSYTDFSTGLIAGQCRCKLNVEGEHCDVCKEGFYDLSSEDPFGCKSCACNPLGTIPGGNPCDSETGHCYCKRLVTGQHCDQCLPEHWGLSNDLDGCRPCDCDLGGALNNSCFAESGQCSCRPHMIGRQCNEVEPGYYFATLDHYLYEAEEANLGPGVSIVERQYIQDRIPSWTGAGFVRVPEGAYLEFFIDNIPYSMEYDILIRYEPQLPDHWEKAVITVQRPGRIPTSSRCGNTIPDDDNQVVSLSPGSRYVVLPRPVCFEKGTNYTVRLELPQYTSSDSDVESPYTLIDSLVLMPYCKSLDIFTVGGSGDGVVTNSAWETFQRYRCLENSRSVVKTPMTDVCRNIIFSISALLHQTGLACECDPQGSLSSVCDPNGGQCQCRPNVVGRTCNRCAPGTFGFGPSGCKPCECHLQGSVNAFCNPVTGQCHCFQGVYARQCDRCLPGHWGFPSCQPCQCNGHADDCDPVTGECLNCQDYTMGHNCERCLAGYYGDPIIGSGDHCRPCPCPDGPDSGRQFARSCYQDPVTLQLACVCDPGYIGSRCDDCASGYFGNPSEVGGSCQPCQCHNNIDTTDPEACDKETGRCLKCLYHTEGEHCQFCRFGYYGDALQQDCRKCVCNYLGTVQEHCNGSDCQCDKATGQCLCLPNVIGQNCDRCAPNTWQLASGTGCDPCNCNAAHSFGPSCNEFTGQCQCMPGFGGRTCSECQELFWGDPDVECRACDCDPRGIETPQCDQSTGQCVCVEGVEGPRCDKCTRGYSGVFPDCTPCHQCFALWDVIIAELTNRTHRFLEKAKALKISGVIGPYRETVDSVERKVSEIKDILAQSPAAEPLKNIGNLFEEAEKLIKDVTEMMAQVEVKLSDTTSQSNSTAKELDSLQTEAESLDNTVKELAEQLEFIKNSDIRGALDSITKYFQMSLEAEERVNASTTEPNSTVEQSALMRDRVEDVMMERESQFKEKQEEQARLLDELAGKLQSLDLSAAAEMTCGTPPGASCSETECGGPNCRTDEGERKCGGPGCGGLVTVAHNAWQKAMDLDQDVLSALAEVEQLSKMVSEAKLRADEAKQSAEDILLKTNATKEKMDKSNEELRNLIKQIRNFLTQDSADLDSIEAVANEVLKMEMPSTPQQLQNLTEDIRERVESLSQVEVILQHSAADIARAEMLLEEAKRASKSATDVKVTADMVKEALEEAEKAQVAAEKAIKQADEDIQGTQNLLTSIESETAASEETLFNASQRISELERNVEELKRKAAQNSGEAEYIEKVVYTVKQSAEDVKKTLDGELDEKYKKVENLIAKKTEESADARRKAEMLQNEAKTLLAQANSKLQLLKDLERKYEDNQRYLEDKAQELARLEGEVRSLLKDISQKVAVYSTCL
Chain of PGK1 (P00558 2-417 limits assumed): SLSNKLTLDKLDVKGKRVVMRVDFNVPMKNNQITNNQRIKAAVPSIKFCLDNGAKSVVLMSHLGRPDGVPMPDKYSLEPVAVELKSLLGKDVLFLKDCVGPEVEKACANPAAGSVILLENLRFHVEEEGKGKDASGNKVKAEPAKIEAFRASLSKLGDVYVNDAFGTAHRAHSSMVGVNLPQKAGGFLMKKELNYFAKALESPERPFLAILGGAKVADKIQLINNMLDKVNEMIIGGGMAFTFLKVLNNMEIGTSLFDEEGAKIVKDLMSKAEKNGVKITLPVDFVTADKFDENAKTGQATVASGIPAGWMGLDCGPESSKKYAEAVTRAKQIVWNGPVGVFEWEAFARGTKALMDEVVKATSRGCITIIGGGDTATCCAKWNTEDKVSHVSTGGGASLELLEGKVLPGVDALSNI
Chain of SLC25A3 (Q00325 50-362 limits assumed): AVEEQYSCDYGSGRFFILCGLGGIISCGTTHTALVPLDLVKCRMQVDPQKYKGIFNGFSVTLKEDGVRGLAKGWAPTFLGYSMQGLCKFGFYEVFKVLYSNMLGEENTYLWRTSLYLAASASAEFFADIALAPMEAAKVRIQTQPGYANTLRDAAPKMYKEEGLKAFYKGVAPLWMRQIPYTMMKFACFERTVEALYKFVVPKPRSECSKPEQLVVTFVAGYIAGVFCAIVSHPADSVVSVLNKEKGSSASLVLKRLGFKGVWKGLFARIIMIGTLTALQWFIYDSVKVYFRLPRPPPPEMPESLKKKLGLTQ
Chain of ABCF1 (Q8NE71 whole entry): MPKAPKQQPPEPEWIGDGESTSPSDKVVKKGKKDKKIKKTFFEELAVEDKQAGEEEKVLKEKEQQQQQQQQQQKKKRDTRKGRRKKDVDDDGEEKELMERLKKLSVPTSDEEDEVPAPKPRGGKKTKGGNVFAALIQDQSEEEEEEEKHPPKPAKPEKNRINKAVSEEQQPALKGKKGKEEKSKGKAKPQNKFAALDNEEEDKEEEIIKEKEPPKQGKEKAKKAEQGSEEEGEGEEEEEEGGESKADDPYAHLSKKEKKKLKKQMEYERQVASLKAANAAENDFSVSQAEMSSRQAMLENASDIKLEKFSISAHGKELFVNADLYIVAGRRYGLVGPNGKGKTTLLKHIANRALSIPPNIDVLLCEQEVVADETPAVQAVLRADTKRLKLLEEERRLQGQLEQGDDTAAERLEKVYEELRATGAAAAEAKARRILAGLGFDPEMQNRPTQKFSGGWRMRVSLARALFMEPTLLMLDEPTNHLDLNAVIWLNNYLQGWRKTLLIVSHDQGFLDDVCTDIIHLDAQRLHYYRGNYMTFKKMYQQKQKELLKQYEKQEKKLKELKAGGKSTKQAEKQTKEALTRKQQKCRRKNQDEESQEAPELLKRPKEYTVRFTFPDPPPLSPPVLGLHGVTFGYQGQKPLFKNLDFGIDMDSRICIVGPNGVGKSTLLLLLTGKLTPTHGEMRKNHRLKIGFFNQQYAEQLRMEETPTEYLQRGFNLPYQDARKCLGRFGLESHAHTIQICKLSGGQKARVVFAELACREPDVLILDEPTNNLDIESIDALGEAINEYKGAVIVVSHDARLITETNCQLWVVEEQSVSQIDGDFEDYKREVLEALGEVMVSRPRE
Chain of TRIM28 (Q13263 2-835 limits assumed): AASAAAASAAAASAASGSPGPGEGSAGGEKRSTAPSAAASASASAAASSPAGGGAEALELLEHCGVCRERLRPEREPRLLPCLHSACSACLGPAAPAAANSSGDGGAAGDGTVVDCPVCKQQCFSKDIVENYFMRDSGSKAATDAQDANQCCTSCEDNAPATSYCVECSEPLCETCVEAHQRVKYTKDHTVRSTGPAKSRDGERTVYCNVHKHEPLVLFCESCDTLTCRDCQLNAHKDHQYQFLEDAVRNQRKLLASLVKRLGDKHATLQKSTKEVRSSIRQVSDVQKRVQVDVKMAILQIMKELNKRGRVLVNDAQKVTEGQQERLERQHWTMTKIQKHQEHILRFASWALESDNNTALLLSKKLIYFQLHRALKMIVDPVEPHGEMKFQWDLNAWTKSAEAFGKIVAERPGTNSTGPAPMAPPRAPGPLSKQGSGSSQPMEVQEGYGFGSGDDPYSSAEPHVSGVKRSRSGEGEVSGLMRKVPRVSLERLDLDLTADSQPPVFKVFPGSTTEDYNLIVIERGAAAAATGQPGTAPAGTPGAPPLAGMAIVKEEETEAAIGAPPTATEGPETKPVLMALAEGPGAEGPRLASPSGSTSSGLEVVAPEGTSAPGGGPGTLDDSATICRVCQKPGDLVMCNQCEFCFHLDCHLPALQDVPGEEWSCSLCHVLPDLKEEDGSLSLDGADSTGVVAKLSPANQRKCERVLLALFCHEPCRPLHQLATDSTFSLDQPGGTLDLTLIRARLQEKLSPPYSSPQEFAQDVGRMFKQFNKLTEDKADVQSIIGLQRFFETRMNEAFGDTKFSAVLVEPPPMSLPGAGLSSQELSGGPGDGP
Chain of ENO1 (P06733 2-434 limits assumed): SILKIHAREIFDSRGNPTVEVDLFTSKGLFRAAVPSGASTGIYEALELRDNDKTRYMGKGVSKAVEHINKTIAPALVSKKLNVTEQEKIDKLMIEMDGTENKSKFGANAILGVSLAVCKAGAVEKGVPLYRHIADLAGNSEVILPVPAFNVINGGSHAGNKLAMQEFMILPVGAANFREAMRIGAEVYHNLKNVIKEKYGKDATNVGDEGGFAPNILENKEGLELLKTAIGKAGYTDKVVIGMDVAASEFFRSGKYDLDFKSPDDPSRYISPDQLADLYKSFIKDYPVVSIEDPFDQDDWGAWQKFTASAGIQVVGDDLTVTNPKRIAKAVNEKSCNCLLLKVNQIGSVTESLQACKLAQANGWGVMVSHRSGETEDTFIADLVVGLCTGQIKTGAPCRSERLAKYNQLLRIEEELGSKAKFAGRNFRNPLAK
Chain of PPIB (P23284 34-216 limits assumed): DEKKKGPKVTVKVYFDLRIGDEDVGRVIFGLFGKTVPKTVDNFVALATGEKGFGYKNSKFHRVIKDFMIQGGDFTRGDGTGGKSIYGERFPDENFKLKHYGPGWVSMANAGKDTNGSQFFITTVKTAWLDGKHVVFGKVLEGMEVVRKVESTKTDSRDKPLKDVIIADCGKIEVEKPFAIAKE
Chain of RPLP2 (P05387 whole entry): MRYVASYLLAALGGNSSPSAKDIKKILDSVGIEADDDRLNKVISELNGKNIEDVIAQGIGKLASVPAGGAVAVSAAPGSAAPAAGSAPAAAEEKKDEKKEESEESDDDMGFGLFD

Work on “N-terminal FLAG tagged B3GNT2 (from UniProt Q9NY97 1-397) (enzyme)” yielded a co-IP mass spectrometry count (N-term FLAG) (CASC3 (human)) of 3.

“IgG control (Millipore Sigma 12-371) (antibody)” was tested, and the co-IP mass spectrometry count (RPN1) was 0, the co-IP mass spectrometry count (RPLP2) was 0 and the co-IP mass spectrometry count (ENO1) was 2. It also gave a co-IP mass spectrometry count (RPL21) of 5 and a co-IP mass spectrometry count (CTSD) of 0.

“C-terminal FLAG tagged B3GNT2 (from UniProt Q9NY97 1-397) (enzyme)” was tested, and the co-IP/MS count (RPL18A) was 12, the co-IP/MS count (PPIB) was 2 and the co-IP/MS count (LAMB1) was 2. The co-IP/MS count (CNP) was 7, the co-IP/MS count (RNASE1) was 2 and the co-IP/MS count (TNC) was 10. The co-IP/MS count (NCL) was 11, the co-IP/MS count (PGK1) was 2 and the co-IP/MS count (MAP1B) was 2. For the same substance, the co-IP/MS count (CEP170) was 2, the co-IP/MS count (ARPC2) was 2 and the co-IP/MS count (SMN1) was 14. For the same substance, the co-IP/MS count (RBMX) was 2, the co-IP/MS count (LRPPRC) was 9 and the co-IP/MS count (CSPG4) was 12. The co-IP/MS count (DPM1) was 8, the co-IP/MS count (SLC25A1) was 8 and the co-IP/MS count (LOXL4) was 8. For the same substance, the co-IP/MS count (RAB1B) was 2, the co-IP/MS count (CALM2) was 2 and the co-IP/MS count (TM9SF3) was 11. The co-IP/MS count (MYO1D) was 2, the co-IP/MS count (RPL29) was 6 and the co-IP/MS count (GNAS) was 2. It also gave a co-IP/MS count (TRIM28) of 8, a co-IP/MS count (HSPH1) of 7 and a co-IP/MS count (OS9) of 9. It also gave a co-IP/MS count (SLC25A10) of 6, a co-IP/MS count (ABCF1) of 2 and a co-IP/MS count (SLC25A3) of 9. For the same substance, the co-IP/MS count (SERPINE2) was 11, the co-IP/MS count (HSPA5) was 130 and the co-IP/MS count (LRP2) was 2.
